Sequences and labels used below:
B1: MARCH6-FLAG WT [human] / SQLE [human (endogenous in K562)] (parent)
chain 1: MDTAEEDICRVCRSEGTPEKPLYHPCVCTGSIKFIHQECLVQWLKHSRKEYCELCKHRFAFTPIYSPDMPSRLPIQDIFAGLVTSIGTAIRYWFHYTLVAFAWLGVVPLTACRIYKCLFTGSVSSLLTLPLDMLSTENLLADCLQGCFVVTCTLCAFISLVWLREQIVHGGAPIWLEHAAPPFNAAGHHQNEAPAGGNGAENVAADQPANPPAENAVVGENPDAQDDQAEEEEEDNEEEDDAGVEDAADANNGAQDDMNWNALEWDRAAEELTWERMLGLDGSLVFLEHVFWVVSLNTLFILVFAFCPYHIGHFSLVGLGFEEHVQASHFEGLITTIVGYILLAITLIICHGLATLVKFHRSRRLLGVCYIVVKVSLLVVVEIGVFPLICGWWLDICSLEMFDATLKDRELSFQSAPGTTMFLHWLVGMVYVFYFASFILLLREVLRPGVLWFLRNLNDPDFNPVQEMIHLPIYRHLRRFILSVIVFGSIVLLMLWLPIRIIKSVLPNFLPYNVMLYSDAPVSELSLELLLLQVVLPALLEQGHTRQWLKGLVRAWTVTAGYLLDLHSYLLGDQEENENSANQQVNNNQHARNNNAIPVVGEGLHAAHQAILQQGGPVGFQPYRRPLNFPLRIFLLIVFMCITLLIASLICLTLPVFAGRWLMSFWTGTAKIHELYTAACGLYVCWLTIRAVTVMVAWMPQGRRVIFQKVKEWSLMIMKTLIVAVLLAGVVPLLLGLLFELVIVAPLRVPLDQTPLFYPWQDWALGVLHAKIIAAITLMGPQWWLKTVIEQVYANGIRNIDLHYIVRKLAAPVISVLLLSLCVPYVIASGVVPLLGVTAEMQNLVHRRIYPFLLMVVVLMAILSFQVRQFKRLYEHIKNDKYLVGQRLVNYERKSGKQGSSPPPPQSSQE
chain 2: MWTFLGIATFTYFYKKFGDFITLANREVLLCVLVFLSLGLVLSYRCRHRNGGLLGRQQSGSQFALFSDILSGLPFIGFFWAKSPPESENKEQLEARRRRKGTNISETSLIGTAACTSTSSQNDPEVIIVGAGVLGSALAAVLSRDGRKVTVIERDLKEPDRIVGEFLQPGGYHVLKDLGLGDTVEGLDAQVVNGYMIHDQESKSEVQIPYPLSENNQVQSGRAFHHGRFIMSLRKAAMAEPNAKFIEGVVLQLLEEDDVVMGVQYKDKETGDIKELHAPLTVVADGLFSKFRKSLVSNKVSVSSHFVGFLMKNAPQFKANHAELILANPSPVLIYQISSSETRVLVDIRGEMPRNLREYMVEKIYPQIPDHLKEPFLEATDNSHLRSMPASFLPPSSVKKRGVLLLGDAYNMRHPLTGGGMTVAFKDIKLWRKLLKGIPDLYDDAAIFEAKKSFYWARKTSHSFVVNILAQALYELFSATDDSLHQLRKACFLYFKLGGECVAGPVGLLSVLSPNPLVLIGHFFAVAIYAVYFCFKSEPWITKPRALLSSGAVLYKACSVIFPLIYSEMKYMVH

The assay covers variants of B1. The assay can be described thus: FLAG-immunoprecipitation, Western blot densitometry. Conditions: with SQLE [human (endogenous in K562)], K562 cells expressing MARCH6-FLAG, eight independent biological replicates, parent: 0.55, read off a plot.
Consider chain 1 Y96V, for which the response (SQLE/MARCH6 ratio) stood at 0.24. With chain 1 Y92V Y96V, the response (SQLE/MARCH6 ratio) came to 0.27. Regarding chain 1 Y92V, the response (SQLE/MARCH6 ratio) came out at 0.89. For chain 1 L140A L747A, the response (SQLE/MARCH6 ratio) amounted to 0.5.
